Source: article PMC6559208, “Phylogeny‐guided characterization of glycosyltransferases for epothilone glycosylation” (Microbial Biotechnology, 2019)

Legend:
[1] = system: T1, BcGT-1; assay: UPLC-PDA glycosylation assay, Michaelis-Menten fit; assay type: biochemical, Bacillus cereus; details: 10 mM UDP-glucose, 10 mM MgCl2, Tris-HCl pH 7.5, 37 °C, 10 min; read-out: Acceptor substrate (epothilone A) / K m
T1 construct: synthetic gene in pET28a, His tag, E. coli BL21(DE3), nickel-purified
From the text: UPLC-PDA glycosylation assay, Michaelis-Menten fit on BcGT-1

[2] = system: T2, BssGT; assay: UPLC-PDA glycosylation assay, Michaelis-Menten fit; assay type: biochemical, Bacillus inaquosorum; details: 10 mM UDP-glucose, 10 mM MgCl2, Tris-HCl pH 7.5, 37 °C, 10 min; read-out: Acceptor substrate (epothilone A) / K m
T2 construct: synthetic gene in pET28a, His tag, E. coli BL21(DE3), nickel-purified
From the text: UPLC-PDA glycosylation assay, Michaelis-Menten fit on BssGT

[3] = target: T3, BsGT-2 (Bacillus subtilis, UniProt O05496); assay: LC-MS conversion assay; assay type: biochemical; details: assay mix 0.5 mM epothilone A, 3 mM UDP-glucose, 10 mM MgCl2, Tris-HCl, 400 μg/ml enzyme, no HPLC product peak, Km not determined
T3 construct: gene ydhE; synthetic gene in pET28a, His tag, E. coli BL21(DE3), nickel-purified
T3 sequence (O05496 whole entry): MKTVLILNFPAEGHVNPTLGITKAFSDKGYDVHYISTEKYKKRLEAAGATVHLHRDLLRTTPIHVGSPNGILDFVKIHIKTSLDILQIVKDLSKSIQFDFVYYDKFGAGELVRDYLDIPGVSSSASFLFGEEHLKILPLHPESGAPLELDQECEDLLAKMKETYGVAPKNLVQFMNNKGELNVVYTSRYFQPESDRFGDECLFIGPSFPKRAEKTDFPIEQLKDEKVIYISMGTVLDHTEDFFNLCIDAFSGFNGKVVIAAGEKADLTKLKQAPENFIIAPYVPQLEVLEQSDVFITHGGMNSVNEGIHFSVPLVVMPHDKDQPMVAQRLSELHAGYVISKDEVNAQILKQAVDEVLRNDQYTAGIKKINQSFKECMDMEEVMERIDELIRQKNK

[4] = system: C/C(=C\c1csc(C)n1)[C@@H]1C[C@@H]2O[C@@H]2CCC[C@H](C)[C@H](O)[C@@H](C)C(=O)C(C)(C)[C@@H](O)CC(=O)O1; assay: UPLC-PDA glycosylation assay, Michaelis-Menten fit; assay type: biochemical, Bacillus atrophaeus; details: 10 mM UDP-glucose, 10 mM MgCl2, Tris-HCl pH 7.5, 37 °C, 10 min
From the text: UPLC-PDA glycosylation assay, Michaelis-Menten fit on BaGT

[5] = system: C/C(=C\c1csc(C)n1)[C@@H]1C[C@@H]2O[C@@H]2CCC[C@H](C)[C@H](O)[C@@H](C)C(=O)C(C)(C)[C@@H](O)CC(=O)O1; assay: UPLC-PDA glycosylation assay, Michaelis-Menten fit; assay type: biochemical, Bacillus velezensis; details: 10 mM UDP-glucose, 10 mM MgCl2, Tris-HCl pH 7.5, 37 °C, 10 min
From the text: UPLC-PDA glycosylation assay, Michaelis-Menten fit on BamGT

[6] = system: C/C(=C\c1csc(C)n1)[C@@H]1C[C@@H]2O[C@@H]2CCC[C@H](C)[C@H](O)[C@@H](C)C(=O)C(C)(C)[C@@H](O)CC(=O)O1; assay: UPLC-PDA glycosylation assay, Michaelis-Menten fit; assay type: biochemical, Bacillus licheniformis; details: 10 mM UDP-glucose, 10 mM MgCl2, Tris-HCl pH 7.5, 37 °C, 10 min
From the text: UPLC-PDA glycosylation assay, Michaelis-Menten fit on YjiC

[7] = system: C/C(=C\c1csc(C)n1)[C@@H]1C[C@@H]2O[C@@H]2CCC[C@H](C)[C@H](O)[C@@H](C)C(=O)C(C)(C)[C@@H](O)CC(=O)O1; assay: UPLC-PDA glycosylation assay, Michaelis-Menten fit; assay type: biochemical, Bacillus subtilis; details: 10 mM UDP-glucose, 10 mM MgCl2, Tris-HCl pH 7.5, 37 °C, 10 min
From the text: UPLC-PDA glycosylation assay, Michaelis-Menten fit on YojK

Molecule: C/C(=C\c1csc(C)n1)[C@@H]1C[C@@H]2O[C@@H]2CCC[C@H](C)[C@H](O)[C@@H](C)C(=O)C(C)(C)[C@@H](O)CC(=O)O1 [epothilone A]
- Km [1]: 1200 ± 215 µM
- Km [2]: 1590 ± 117 µM
- % conversion after 10 h [3]: 0.03%

Molecule: BaGT (Bacillus atrophaeus 1942)
- Km [4]: 113.66 ± 10.55 µM
- kcat [4]: 0.113 ± 0.00417 s⁻¹
- kcat/Km [4]: 990 M⁻¹ s⁻¹

Molecule: BamGT (Bacillus velezensis FZB42)
- Km [5]: 2245.74 ± 311.96 µM
- kcat [5]: 0.0182 ± 0.00117 s⁻¹
- kcat/Km [5]: 8.33 M⁻¹ s⁻¹

Molecule: YjiC (Bacillus licheniformis DSM 13 = ATCC 14580)
- Km [6]: 94.58 ± 2.95 µM
- kcat [6]: 0.192 ± 0.00317 s⁻¹
- kcat/Km [6]: 2030 M⁻¹ s⁻¹

Molecule: YojK (Bacillus subtilis subsp. subtilis str. 168)
- Km [7]: 1720.77 ± 161.35 µM
- kcat [7]: 0.0205 ± 0.00117 s⁻¹
- kcat/Km [7]: 11.8 M⁻¹ s⁻¹
